From the supplement of paper PMC7877785
± gives the uncertainty stated by the source.

Assay: self-splicing fitness, log relative to wild type (ln ratio); higher = more splicing; Tetrahymena group I intron in knt gene, E. coli kanamycin selection, DiMSum; sequences stand for … in CUCUCU…GGAGGGAAAAGUUAUCAGGCAUGCACCUGGUAGCUAGUCUUUAAACCAAUAGAUUGCAUCGGUUUAAAAGGCAAGACCGUCAAAUUGCGGGAAAGGGGUCAACAGCCGUUCAGUACCAAGUCUCAGGGGAAACUUUGAGAUGGCCUUGCAAAGGGUAUGGUAAUAAGCUGACGGACAUGGUCCUAACCACGCAGCCAAGUCCUAAGUCAACAGAUCUUCUGUUGAUAUGGAUGCAGUUCACAGACUAAAUGUCGGUCGGGGAAGAUGUAUUCUUCUCAUAAGAUAUAGUCGGACCUCUCCUUAAUGGGAGCUAGCGGAUGAAGUGAUGCAACACUGGAGCCGCUGGGAACUAAUUUGUAUGCGAAAGUAUAUUGAUUAGUUUUGGAGUACUCGUGGUCG
Outline: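 Colonies from six replicate transformations of E. coli BL21(DE3) were pooled and amplicon-sequenced on an Illumina HiSeq 2500. The library placed an intron with all eight P1ex-region nucleotides randomised inside the knt kanamycin-resistance gene on pET-22b(+), and cells grew overnight at 37°C or 30°C on LB agar with or without 25 μg/mL kanamycin (plus 100 μg/mL carbenicillin, 50 μM IPTG, 0.2% rhamnose). Fitness is the DiMSum error-weighted combination of wild-type-normalised replicate fold changes, kanamycin versus none.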

Sequence | self-splicing fitness (ln) (30 °C) | self-splicing fitness (ln) (37 °C)
CCCUAGCAAUAUUACGAUUC | -1.79 ± 0.35 | 
CCCUAGCAAUAUUACGCAAA | -3.13 ± 0.24 | -3.49 ± 0.42
CCCUAGCAAUAUUACGCACG | -3.98 ± 0.37 | -1.74 ± 0.18
CCCUAGCAAUAUUACGCACU | -2.43 ± 0.15 | -2.64 ± 0.24
CCCUAGCAAUAUUACGCCGA | -3.85 ± 0.33 | -2.31 ± 0.3
CCCUAGCAAUAUUACGCUCA |  | -2.67 ± 0.36
CCCUAGCAAUAUUACGCUCC |  | -2.13 ± 0.4
CCCUAGCAAUAUUACGGCCA | -2.88 ± 0.39 | -2.19 ± 0.26
CCCUAGCAAUAUUACGGGAA | -3.63 ± 0.25 | -3.08 ± 0.19
CCCUAGCAAUAUUACGGUAG | -3.6 ± 0.16 | -3.5 ± 0.21
CCCUAGCAAUAUUACGGUGC | -3.43 ± 0.12 | -2.88 ± 0.17
CCCUAGCAAUAUUACGGUGG | -4.27 ± 0.29 | -1.93 ± 0.16
CCCUAGCAAUAUUACGGUUU | -3.31 ± 0.17 | -2.87 ± 0.17
CCCUAGCAAUAUUACGUACU | -2.78 ± 0.14 | -2.65 ± 0.23
CCCUAGCAAUAUUACGUCAC | -2.55 ± 0.24 | -1.44 ± 0.34
CCCUAGCAAUAUUACGUGGA | -1.42 ± 0.094 | -0.882 ± 0.093
CCCUAGCAAUAUUACGUGGU | -4.61 ± 0.2 | -2.27 ± 0.14
CCCUAGCAAUAUUACGUGUA | -3.49 ± 0.25 | -2.94 ± 0.21
CCCUAGCAAUAUUACGUUCU | -4.33 ± 0.23 | -3.61 ± 0.19
CCCUAGCAAUAUUACGUUUC | -3.32 ± 0.17 | -2.24 ± 0.19
CCCUAGCAAUAUUACGUUUU | -3.59 ± 0.15 | -2.2 ± 0.14
CCGAAGCAAUAUUACGAAUA | -2.66 ± 0.24 | -2.49 ± 0.21
CCGAAGCAAUAUUACGACAG | -0.797 ± 0.098 | -0.282 ± 0.12
CCGAAGCAAUAUUACGAGAC |  | -2.52 ± 0.31
CCGAAGCAAUAUUACGAGUA | -2.42 ± 0.2 | -2.92 ± 0.23

Sequence | self-splicing fitness (ln) (30 °C) | self-splicing fitness (ln) (37 °C)
CCGAAGCAAUAUUACGAUAU | -4.3 ± 0.35 | -3.21 ± 0.26
CCGAAGCAAUAUUACGCCGG |  | -2.21 ± 0.46
CCGAAGCAAUAUUACGCGAU | -3.78 ± 0.28 | -1.93 ± 0.33
CCGAAGCAAUAUUACGCUUU | -2.45 ± 0.15 | -3.33 ± 0.23
CCGAAGCAAUAUUACGGAGC | -1.9 ± 0.33 | -2.74 ± 0.44
CCGAAGCAAUAUUACGGAUU | -2.88 ± 0.27 | -3.15 ± 0.35
CCGAAGCAAUAUUACGGCAU | -4.19 ± 0.31 | -2.92 ± 0.23
CCGAAGCAAUAUUACGGCGA | -2.69 ± 0.3 | -2.53 ± 0.32
CCGAAGCAAUAUUACGUAUG | -0.869 ± 0.077 | 0.0157 ± 0.1
CCGAAGCAAUAUUACGUCCU |  | -1.89 ± 0.28
CCGAAGCAAUAUUACGUGUC | -3.49 ± 0.23 | -1.34 ± 0.16
CCGAAGCAAUAUUACGUUAU | -3.94 ± 0.32 | -2.87 ± 0.2
CCGAAGCAAUAUUACGUUUC | -3.56 ± 0.24 | -2.84 ± 0.19
CCGCAGCAAUAUUACGAACU | -1.92 ± 0.17 | 
CCGCAGCAAUAUUACGACGA | -0.105 ± 0.077 | -0.259 ± 0.084
CCGCAGCAAUAUUACGAGAA | -3.07 ± 0.28 | -2.24 ± 0.31
CCGCAGCAAUAUUACGAGCG | -2.4 ± 0.12 | -0.494 ± 0.11
CCGCAGCAAUAUUACGAGGA | -3.51 ± 0.19 | -1.79 ± 0.13
CCGCAGCAAUAUUACGAGUU | -4.11 ± 0.22 | -2.56 ± 0.21
CCGCAGCAAUAUUACGCCAU | -3.66 ± 0.15 | -3.07 ± 0.19
CCGCAGCAAUAUUACGCCCG | -0.205 ± 0.11 | 0.732 ± 0.16
CCGCAGCAAUAUUACGCGUC | -3 ± 0.13 | -3.01 ± 0.23
CCGCAGCAAUAUUACGGCUG | -3.8 ± 0.29 | -2.45 ± 0.27
CCGCAGCAAUAUUACGGUGU | -3.97 ± 0.16 | -1.89 ± 0.14
CCGCAGCAAUAUUACGGUUG | -2.18 ± 0.066 | -1.24 ± 0.085

Sequence | self-splicing fitness (ln) (30 °C) | self-splicing fitness (ln) (37 °C)
CCGCAGCAAUAUUACGUCCA | -2.28 ± 0.27 | 0.175 ± 0.2
CCGCAGCAAUAUUACGUCCG | -0.393 ± 0.084 | -0.499 ± 0.09
CCGCAGCAAUAUUACGUGCA | -3.71 ± 0.33 | -1.54 ± 0.14
CCGCAGCAAUAUUACGUGCU | -2.05 ± 0.27 | 
CCGCAGCAAUAUUACGUGGC | -3.29 ± 0.16 | -2.3 ± 0.2
CCGCAGCAAUAUUACGUUCG | -0.778 ± 0.056 | -0.0727 ± 0.077
CCGGAGCAAUAUUACGAAAG | -2.31 ± 0.11 | -1.05 ± 0.12
CCGGAGCAAUAUUACGAACU | -2.29 ± 0.31 | -0.657 ± 0.28
CCGGAGCAAUAUUACGACAA | -3.72 ± 0.43 | -2.16 ± 0.3
CCGGAGCAAUAUUACGCACG |  | -0.516 ± 0.21
CCGGAGCAAUAUUACGCCAC | -3.02 ± 0.49 | 0.445 ± 0.34
CCGGAGCAAUAUUACGCCUC |  | -2.47 ± 0.41
CCGGAGCAAUAUUACGCGGA | -3.34 ± 0.23 | -2.74 ± 0.29
CCGGAGCAAUAUUACGCGGG | -4.25 ± 0.39 | -2.25 ± 0.19
CCGGAGCAAUAUUACGGACA | -2.43 ± 0.42 | -2.97 ± 0.47
CCGGAGCAAUAUUACGGACG | -2.82 ± 0.19 | -1.31 ± 0.25
CCGGAGCAAUAUUACGGAGA | -3.99 ± 0.39 | -2.24 ± 0.25
CCGGAGCAAUAUUACGGCCG | -2.44 ± 0.26 | -0.644 ± 0.21
CCGGAGCAAUAUUACGGCUU | -0.296 ± 0.29 | -1.49 ± 0.33
CCGGAGCAAUAUUACGGGCC |  | -2.03 ± 0.33
CCGGAGCAAUAUUACGGGUA | -3.53 ± 0.4 | 
CCGGAGCAAUAUUACGGUAG | -2.71 ± 0.14 | -2.75 ± 0.21
CCGGAGCAAUAUUACGUCGA | -3.12 ± 0.2 | -1.89 ± 0.19
CCGGAGCAAUAUUACGUGCC | -2.1 ± 0.38 | -2.94 ± 0.35
CCGGAGCAAUAUUACGUGCG | -1.42 ± 0.077 | -0.676 ± 0.091

Sequence | self-splicing fitness (ln) (30 °C) | self-splicing fitness (ln) (37 °C)
CCGUAGCAAUAUUACGAAUG | -0.463 ± 0.099 | 0.0216 ± 0.11
CCGUAGCAAUAUUACGAGAA | -2.42 ± 0.42 | -1.03 ± 0.44
CCGUAGCAAUAUUACGCAGU | -2.54 ± 0.18 | -2.6 ± 0.27
CCGUAGCAAUAUUACGCAUU | -3.54 ± 0.31 | -2.9 ± 0.47
CCGUAGCAAUAUUACGGAUC | -3.86 ± 0.2 | -2.03 ± 0.19
CCGUAGCAAUAUUACGGCGA | -2.54 ± 0.21 | -2.62 ± 0.25
CCGUAGCAAUAUUACGGCUA | -3.49 ± 0.34 | -3.04 ± 0.35
CCGUAGCAAUAUUACGGUAG | -3.48 ± 0.2 | -2.97 ± 0.24
CCGUAGCAAUAUUACGUACA | -2.04 ± 0.14 | -1.8 ± 0.19
CCGUAGCAAUAUUACGUACU |  | -2.03 ± 0.32
CCGUAGCAAUAUUACGUCAC | -1.02 ± 0.27 | 
CCUAAGCAAUAUUACGAUAA | -2.87 ± 0.2 | -3.37 ± 0.28
CCUAAGCAAUAUUACGAUAC | -3.63 ± 0.4 | -2.3 ± 0.27
CCUAAGCAAUAUUACGAUGU | -2.84 ± 0.12 | -2.03 ± 0.15
CCUAAGCAAUAUUACGAUUG | -3.51 ± 0.19 | -1.68 ± 0.13
CCUAAGCAAUAUUACGCACU | -2.71 ± 0.23 | -2.96 ± 0.23
CCUAAGCAAUAUUACGCCUC | -2.59 ± 0.36 | 
CCUAAGCAAUAUUACGCGCC | -2.47 ± 0.26 | -1.63 ± 0.33
CCUAAGCAAUAUUACGCGGA | -2.38 ± 0.19 | -3.62 ± 0.46
CCUAAGCAAUAUUACGCUAG | -3.75 ± 0.47 | -1.64 ± 0.3
CCUAAGCAAUAUUACGCUUG | -4.18 ± 0.36 | -2.98 ± 0.26
CCUAAGCAAUAUUACGGAAC | -3.35 ± 0.3 | -1.68 ± 0.24
CCUAAGCAAUAUUACGGACG | -1.15 ± 0.059 | -0.303 ± 0.08
CCUAAGCAAUAUUACGGGGU | -3.28 ± 0.17 | -2.82 ± 0.17
CCUAAGCAAUAUUACGGUAA | -2.48 ± 0.24 | -2.73 ± 0.25
